Test results: US20200087394A1

Target: CD16 receptor on Jurkat-hCD16aF cells (human) (UniProt P08637)
Assay: cell-based or functional assay

Chain of CD16 receptor on Jurkat-hCD16aF cells (human) (P08637 17-254): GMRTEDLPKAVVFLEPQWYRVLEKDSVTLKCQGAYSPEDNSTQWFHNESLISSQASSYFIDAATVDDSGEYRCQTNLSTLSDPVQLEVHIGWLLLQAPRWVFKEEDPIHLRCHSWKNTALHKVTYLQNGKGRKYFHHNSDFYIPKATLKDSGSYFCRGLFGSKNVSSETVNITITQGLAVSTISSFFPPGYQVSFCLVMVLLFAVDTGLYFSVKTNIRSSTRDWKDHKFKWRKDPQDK

Substance	quantity of antibody required to induce 1000 pg of IL-2 from Jurkat-hCD16aF cells with PD-L1 aAPC/CHO-K1 target cells (ng per 1000 pg of IL-2)
Anti-PDL1|durvalumab|Fc-WT (CHOs) (from UniProt P01857 1-330) (antibody)	> 1250
Anti-PDL1|atezolizumab|Fc-WT (CHOs) (from UniProt P01857 1-330) (antibody)	> 1250
